Results taken from the supplement of paper PMC7877785.
± gives the uncertainty stated by the source.

Assay: self-splicing fitness, log relative to wild type (ln ratio); higher = more splicing; Tetrahymena group I intron in knt gene, E. coli kanamycin selection, DiMSum; sequences stand for … in CUCUCU…GGAGGGAAAAGUUAUCAGGCAUGCACCUGGUAGCUAGUCUUUAAACCAAUAGAUUGCAUCGGUUUAAAAGGCAAGACCGUCAAAUUGCGGGAAAGGGGUCAACAGCCGUUCAGUACCAAGUCUCAGGGGAAACUUUGAGAUGGCCUUGCAAAGGGUAUGGUAAUAAGCUGACGGACAUGGUCCUAACCACGCAGCCAAGUCCUAAGUCAACAGAUCUUCUGUUGAUAUGGAUGCAGUUCACAGACUAAAUGUCGGUCGGGGAAGAUGUAUUCUUCUCAUAAGAUAUAGUCGGACCUCUCCUUAAUGGGAGCUAGCGGAUGAAGUGAUGCAACACUGGAGCCGCUGGGAACUAAUUUGUAUGCGAAAGUAUAUUGAUUAGUUUUGGAGUACUCGUGGUCG
Procedure, shortened: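 Six replicate transformations of E. coli BL21(DE3) with a pET-22b(+) library were grown overnight at 37°C or 30°C. The library randomised all eight P1ex-region intron nucleotides, the intron lying in the knt kanamycin-resistance gene, and plates were LB agar with or without 25 μg/mL kanamycin plus 100 μg/mL carbenicillin, 50 μM IPTG and 0.2% rhamnose. Pooled colonies were amplicon-sequenced on an Illumina HiSeq 2500, and fitness is the DiMSum error-weighted combination of wild-type-normalised replicate fold changes, kanamycin versus none.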

CAACAGCAAUAUUACGUUGC
self-splicing fitness (ln) (30 °C): -4.78 ± 0.36
self-splicing fitness (ln) (37 °C): -1.54 ± 0.14

AGGUAGCAAUAUUACGUAGA
self-splicing fitness (ln) (30 °C): -3.995 ± 0.028
self-splicing fitness (ln) (37 °C): -2.07 ± 0.036

GGACAGCAAUAUUACGUAAC
self-splicing fitness (ln) (30 °C): -0.0173 ± 0.1
self-splicing fitness (ln) (37 °C): -0.0671 ± 0.14

CAAAAGCAAUAUUACGUGGA
self-splicing fitness (ln) (30 °C): -3.4 ± 0.14
self-splicing fitness (ln) (37 °C): -2 ± 0.096

GUCAAGCAAUAUUACGGCAC
self-splicing fitness (ln) (30 °C): -1.35 ± 0.16
self-splicing fitness (ln) (37 °C): 0.15 ± 0.22

UUAGAGCAAUAUUACGUCCG
self-splicing fitness (ln) (30 °C): -2.38 ± 0.24
self-splicing fitness (ln) (37 °C): -1.99 ± 0.34

AGUGAGCAAUAUUACGGAGC
self-splicing fitness (ln) (30 °C): -1.89 ± 0.18
self-splicing fitness (ln) (37 °C): -3.36 ± 0.33

AUGCAGCAAUAUUACGGCUU
self-splicing fitness (ln) (30 °C): -0.164 ± 0.072
self-splicing fitness (ln) (37 °C): 0.254 ± 0.085

GAUGAGCAAUAUUACGACAC
self-splicing fitness (ln) (30 °C): -1.25 ± 0.15
self-splicing fitness (ln) (37 °C): -0.309 ± 0.16

UGAGAGCAAUAUUACGACAG
self-splicing fitness (ln) (30 °C): -4.41 ± 0.39
self-splicing fitness (ln) (37 °C): -3.07 ± 0.34

GGCAAGCAAUAUUACGCAGU
self-splicing fitness (ln) (30 °C): -1.88 ± 0.12
self-splicing fitness (ln) (37 °C): -1.43 ± 0.13

GGUCAGCAAUAUUACGUUAG
self-splicing fitness (ln) (30 °C): -2.17 ± 0.14
self-splicing fitness (ln) (37 °C): -1.68 ± 0.18

GCACAGCAAUAUUACGGAAC
self-splicing fitness (ln) (30 °C): -1.06 ± 0.086
self-splicing fitness (ln) (37 °C): -0.752 ± 0.12

AGCCAGCAAUAUUACGCUUU
self-splicing fitness (ln) (30 °C): -2.84 ± 0.089
self-splicing fitness (ln) (37 °C): -0.852 ± 0.086

UGUGAGCAAUAUUACGUCAA
self-splicing fitness (ln) (30 °C): -3.68 ± 0.35
self-splicing fitness (ln) (37 °C): -2.65 ± 0.31

AGCAAGCAAUAUUACGGUCA
self-splicing fitness (ln) (30 °C): -0.46 ± 0.07
self-splicing fitness (ln) (37 °C): 0.00074 ± 0.084

ACCUAGCAAUAUUACGCGAC
self-splicing fitness (ln) (30 °C): -2.55 ± 0.2
self-splicing fitness (ln) (37 °C): -0.855 ± 0.19

ACCCAGCAAUAUUACGUUGG
self-splicing fitness (ln) (30 °C): -3.6 ± 0.1
self-splicing fitness (ln) (37 °C): -2.16 ± 0.11

GCAGAGCAAUAUUACGGUGG
self-splicing fitness (ln) (30 °C): -3.65 ± 0.33
self-splicing fitness (ln) (37 °C): -2.21 ± 0.21

UAGCAGCAAUAUUACGAACU
self-splicing fitness (ln) (30 °C): -0.336 ± 0.18
self-splicing fitness (ln) (37 °C): 0.618 ± 0.14

GAUCAGCAAUAUUACGGGUU
self-splicing fitness (ln) (30 °C): -3.12 ± 0.26
self-splicing fitness (ln) (37 °C): -2.88 ± 0.38

UCGUAGCAAUAUUACGUCCA
self-splicing fitness (ln) (30 °C): -0.914 ± 0.16
self-splicing fitness (ln) (37 °C): -0.15 ± 0.17

ACUAAGCAAUAUUACGUUAA
self-splicing fitness (ln) (30 °C): -2.77 ± 0.14
self-splicing fitness (ln) (37 °C): -2.7 ± 0.18

CAAGAGCAAUAUUACGCCCG
self-splicing fitness (ln) (30 °C): -1.84 ± 0.2
self-splicing fitness (ln) (37 °C): -1.03 ± 0.22

AGGUAGCAAUAUUACGGUAC
self-splicing fitness (ln) (30 °C): -3.522 ± 0.032
self-splicing fitness (ln) (37 °C): -2.07 ± 0.04

GGUAAGCAAUAUUACGGUAC
self-splicing fitness (ln) (30 °C): -1.32 ± 0.08
self-splicing fitness (ln) (37 °C): -0.815 ± 0.13

UAGGAGCAAUAUUACGGAGA
self-splicing fitness (ln) (37 °C): -2.34 ± 0.38

GGGGAGCAAUAUUACGUACU
self-splicing fitness (ln) (30 °C): -1.58 ± 0.17
self-splicing fitness (ln) (37 °C): -0.886 ± 0.16

AAAAAGCAAUAUUACGAAUU
self-splicing fitness (ln) (30 °C): -1.3 ± 0.072
self-splicing fitness (ln) (37 °C): -1.13 ± 0.089

CUACAGCAAUAUUACGCCAG
self-splicing fitness (ln) (30 °C): -1.3 ± 0.13
self-splicing fitness (ln) (37 °C): -0.891 ± 0.16

CUUAAGCAAUAUUACGGCAA
self-splicing fitness (ln) (30 °C): -2.7 ± 0.42
self-splicing fitness (ln) (37 °C): -2.57 ± 0.38

UCAGAGCAAUAUUACGAGGA
self-splicing fitness (ln) (30 °C): -2.47 ± 0.15
self-splicing fitness (ln) (37 °C): -1.83 ± 0.16

AGAAAGCAAUAUUACGGAAC
self-splicing fitness (ln) (30 °C): -3.04 ± 0.25
self-splicing fitness (ln) (37 °C): -1.84 ± 0.29

GGGCAGCAAUAUUACGGGGA
self-splicing fitness (ln) (30 °C): -2.97 ± 0.21
self-splicing fitness (ln) (37 °C): -1.56 ± 0.17

GAGGAGCAAUAUUACGGCGU
self-splicing fitness (ln) (30 °C): -1.72 ± 0.16
self-splicing fitness (ln) (37 °C): -0.0856 ± 0.14

ACUAAGCAAUAUUACGGGCC
self-splicing fitness (ln) (30 °C): -2.88 ± 0.2
self-splicing fitness (ln) (37 °C): -1.73 ± 0.21

CACCAGCAAUAUUACGGUUA
self-splicing fitness (ln) (30 °C): -0.251 ± 0.068
self-splicing fitness (ln) (37 °C): -0.0422 ± 0.09

AAGUAGCAAUAUUACGUGCG
self-splicing fitness (ln) (30 °C): -1.48 ± 0.12
self-splicing fitness (ln) (37 °C): -0.495 ± 0.15
